Measurements from publication PMC6137059.

Target: TcpK (Clostridium perfringens (plasmid pCW3), UniProt Q1PLI2 1-102)
Assay: fluorescence polarization; SPR: 10 mM HEPES pH 7.4, 200 mM NaCl, 3 mM EDTA, 0.05% Tween 20, 20 C; […]
Settings: protein: recombinant; tags: N-terminal His6-TEV, cleaved; chain copies: 2; label: 5' Alexa488; blunt

B1: oriTmin23 Alexa488 (dsDNA)
DNA 1: AAGGAACTTTACAGGGAACTTTA
DNA 2: TAAAGTTCCCTGTAAAGTTCCTT
Work on B1 yielded a Kd of 590 nM.
